Assay in all cases: cell-based or functional assay
In assay [1] the target is HIV-1 Env of pseudovirus 89-F1_2_25 (HIV-1).
For assay [2], the target named is HIV-1 Env of pseudovirus 6952.v1.c20 (HIV-1).
Assay [3] concerns the target HIV-1 Env of pseudovirus 263-8 (HIV-1).
Assay [4] has as its target HIV-1 Env of pseudovirus 3016.v5.c45 (HIV-1).
In assay [5] the target is HIV-1 Env of pseudovirus 3415.v1.c1 (HIV-1).
For assay [6], the target named is HIV-1 Env of pseudovirus 620345.c01 (HIV-1).
For assay [7], the target named is HIV-1 Env of pseudovirus P1981_C5_3 (HIV-1).

A value given as a limit tells only on which side of the number the result lay.

In the case of 3BNC117 (antibody), the IC50, titer in TZM.bl cells in assay [1] was above 50 µg/mL; in assay [2] it was 0.15 µg/mL; in assay [4] it was 1.38 µg/mL; in assay [6] it was above 15 µg/mL; in assay [7] it was 0.74 µg/mL. Moreover, the IC80, titer in TZM.bl cells is above 50 µg/mL in assay [1]; 0.75 µg/mL in assay [2]; above 30 µg/mL in assay [4]; above 15 µg/mL in assay [6]; 3.62 µg/mL in assay [7]. For the same substance, the figures for the neutralization IC50 in assay [3] and in assay [5] were 0.005 µg/mL and 0.17 µg/mL, respectively. The neutralization IC80 turned out to be 0.04 µg/mL in assay [3] and 0.47 µg/mL in assay [5].
For 8ANC195 (antibody), the IC50, titer in TZM.bl cells in assay [1] was above 50 µg/mL; in assay [2], 1.38 µg/mL; in assay [4], 0.87 µg/mL; in assay [6], above 50 µg/mL; in assay [7], 0.14 µg/mL. Further, the IC80, titer in TZM.bl cells is above 50 µg/mL in assay [1]; 7.22 µg/mL in assay [2]; above 50 µg/mL in assay [4]; above 50 µg/mL in assay [6]; 1.15 µg/mL in assay [7]. In assay [3], the neutralization IC50 was above 50 µg/mL. Further, the neutralization IC80 in assay [3] is above 50 µg/mL.
As a reminder, the IC50 is the concentration that gives 50% inhibition. As a reminder, the IC80 is the concentration needed for an effect of 80%. A higher IC80 goes with a need for much substance. As to N49P6 (antibody), the IC50 came to 33.6 µg/mL in assay [1]; 16.9 µg/mL in assay [2]; 0.116 µg/mL in assay [3]; 21.7 µg/mL in assay [4]; 0.188 µg/mL in assay [5]; 22.9 µg/mL in assay [6]. In assay [7], the IC50 is 0.31 µg/mL. In addition, the IC80 in assay [1] was above 50 µg/mL; in assay [2], above 50 µg/mL; in assay [3], 0.438 µg/mL; in assay [4], above 50 µg/mL; in assay [5] it was 0.648 µg/mL; in assay [6], above 50 µg/mL. The IC80 in assay [7] is 0.708 µg/mL. In addition, the MPI in assay [1] turned out to be 61; in assay [2] it was 78; in assay [3] it was 100; in assay [4] it was 72; in assay [5], 100; in assay [6], 70. In addition, in assay [7], the MPI was 100.
NIH 45-46 (antibody): the IC50, titer in TZM.bl cells was above 50 µg/mL in assay [1]; 0.02 µg/mL in assay [2]; above 30 µg/mL in assay [4]; above 30 µg/mL in assay [6]; 0.05 µg/mL in assay [7]. Moreover, the IC80, titer in TZM.bl cells in assay [1] is above 50 µg/mL; in assay [2], 0.07 µg/mL; in assay [4], above 30 µg/mL; in assay [6], above 30 µg/mL; in assay [7], 0.22 µg/mL. The results for the neutralization IC50 in assay [3] and in assay [5] were 0.05 µg/mL and 0.07 µg/mL, respectively. Besides, the neutralization IC80 in assay [3] amounted to 0.1 µg/mL; in assay [5] it was 0.07 µg/mL.
Turning to PGDM1400 (antibody), the IC50, titer in TZM.bl cells in assay [1] is 0.001 µg/mL; in assay [2] it was 0.501 µg/mL; in assay [4], above 50 µg/mL; in assay [6] it was 0.009 µg/mL; in assay [7], 0.104 µg/mL. Moreover, the IC80, titer in TZM.bl cells in assay [1] is 0.005 µg/mL; in assay [2], 11.8 µg/mL; in assay [4], above 50 µg/mL; in assay [6], 40.3 µg/mL; in assay [7], 4.6 µg/mL. The substance also had an IC50 in assay [3] of 0.02 µg/mL. Further, the IC80 in assay [3] is 0.103 µg/mL.
Turning to PGT121 (antibody), the IC50 in assay [1] is above 50 µg/mL; in assay [2], 0.056 µg/mL; in assay [3] it was 0.648 µg/mL; in assay [4] it was above 50 µg/mL; in assay [6], above 50 µg/mL; in assay [7], below 0.001 µg/mL. Moreover, the IC80 in assay [1] is above 50 µg/mL; in assay [2], 0.42 µg/mL; in assay [3], 3.96 µg/mL; in assay [4], above 50 µg/mL; in assay [6], above 50 µg/mL; in assay [7], below 0.001 µg/mL.
For the substance PGT128 (antibody), the IC50, titer in TZM.bl cells in assay [1] is above 50 µg/mL; in assay [2] it was above 50 µg/mL; in assay [4], above 50 µg/mL; in assay [6], above 50 µg/mL; in assay [7], 0.019 µg/mL. The IC80, titer in TZM.bl cells in assay [1] was above 50 µg/mL; in assay [2], above 50 µg/mL; in assay [4] it was above 50 µg/mL; in assay [6] it was above 50 µg/mL; in assay [7], 0.088 µg/mL. In assay [3], the IC50 turned out to be 0.342 µg/mL. This substance also gave an IC80 in assay [3] of 3.3 µg/mL.
As to PGT145 (antibody), the IC50, titer in TZM.bl cells in assay [1] is 0.8 µg/mL; in assay [2], 3.12 µg/mL; in assay [4] it was above 50 µg/mL; in assay [6], 0.241 µg/mL; in assay [7], 5.41 µg/mL. Moreover, the IC80, titer in TZM.bl cells in assay [1] was 20 µg/mL; in assay [2], above 50 µg/mL; in assay [4], above 50 µg/mL; in assay [6], 19.7 µg/mL; in assay [7] it was above 50 µg/mL. The substance further yielded an IC50 in assay [3] of 32.1 µg/mL. For the same substance, the IC80 in assay [3] was above 50 µg/mL.
For the substance PGT151 (antibody), the IC50, titer in TZM.bl cells in assay [1] was 22.9 µg/mL; in assay [2], 49.2 µg/mL; in assay [4] it was 0.174 µg/mL; in assay [6], above 50 µg/mL; in assay [7] it was 0.021 µg/mL. In addition, the IC80, titer in TZM.bl cells in assay [1] is above 50 µg/mL; in assay [2], above 50 µg/mL; in assay [4], 40.7 µg/mL; in assay [6] it was above 50 µg/mL; in assay [7] it was above 50 µg/mL. Moreover, the IC50 in assay [3] was above 50 µg/mL. For the same substance, the IC80 in assay [3] was above 50 µg/mL.
With VRC01 (antibody), the IC50, titer in TZM.bl cells was 0.04 µg/mL in assay [2]; 0.2 µg/mL in assay [3]; 0.16 µg/mL in assay [4]; 0.06 µg/mL in assay [5]; above 50 µg/mL in assay [6]; 0.46 µg/mL in assay [7]. In addition, the IC80, titer in TZM.bl cells was 0.12 µg/mL in assay [2]; 0.55 µg/mL in assay [3]; 0.42 µg/mL in assay [4]; 0.15 µg/mL in assay [5]; above 50 µg/mL in assay [6]; 1.26 µg/mL in assay [7].
VRC07 (antibody): the IC50, titer in TZM.bl cells in assay [1] is above 50 µg/mL; in assay [2], 0.064 µg/mL; in assay [4] it was 0.095 µg/mL; in assay [6] it was above 50 µg/mL; in assay [7], 0.213 µg/mL. The IC80, titer in TZM.bl cells in assay [1] is above 50 µg/mL; in assay [2], 0.181 µg/mL; in assay [4] it was 0.392 µg/mL; in assay [6], above 50 µg/mL; in assay [7], 0.609 µg/mL. Also, the neutralization IC50 in assay [3] amounted to 0.103 µg/mL; in assay [5], 0.036 µg/mL. Further, the neutralization IC80 in assay [3] came out at 0.282 µg/mL; in assay [5] it was 0.152 µg/mL.

The record behind these values is patent US20230002480A1.
